In the Immune Epitope Database (IEDB):

Legend:
[1] = target: HLA-B*58:01; assay: IEDB peptide-MHC binding, cellular MHC/competitive/fluorescence; ≥ and ≤ were set here for values at or beyond the usual limits of such assays; settings: source organism: Human herpesvirus 4 strain B95-8
[2] = target: HLA-B*27:05; assay: IEDB peptide-MHC binding, purified MHC/direct/fluorescence; filed as Kd, often an IC50 or EC50 that approximates it; ≥ and ≤ were set here for values at or beyond the usual limits of such assays
[3] = target: HLA-B*57:01; assay: as above
[4] = target: HLA-B*48:01; assay: as above
[5] = target: HLA-A*01:01; assay: as above
[6] = target: HLA-B*51:01; assay: as above; settings: source organism: Bacillus cereus H3081.97
[7] = target: HLA-B*15:01; assay: as above
[8] = target: HLA-B*08:02; assay: as above; settings: source organism: Bacillus cereus H3081.97
[9] = target: HLA-B*07:02; assay: as above
[10] = target: HLA-A*26:01; assay: as above; settings: source organism: Bacillus cereus H3081.97
[11] = target: HLA-A*26:02; assay: as above; settings: source organism: Bacillus cereus H3081.97
[12] = target: HLA-B*40:01; assay: as above
[13] = target: HLA-A*69:01; assay: as above
[14] = target: HLA-B*38:01; assay: as above; settings: source organism: Bacillus cereus H3081.97
[15] = target: HLA-A*03:01; assay: as above
[16] = target: HLA-A*02:01; assay: as above
[17] = target: HLA-B*58:01; assay: as above
[18] = target: HLA-B*39:01; assay: as above
[19] = target: HLA-B*15:09; assay: as above; settings: source organism: Bacillus cereus H3081.97
[20] = target: HLA-B*15:17; assay: IEDB peptide-MHC binding, purified MHC/competitive/fluorescence; filed as Kd, often an IC50 or EC50 that approximates it; ≥ and ≤ were set here for values at or beyond the usual limits of such assays; settings: source organism: Bacillus thuringiensis serovar sotto str. T04001
[21] = target: HLA-A*30:01; assay: as above; settings: source organism: Bacillus thuringiensis serovar sotto str. T04001
[22] = target: HLA-A*11:01; assay: as above; settings: source organism: Bacillus thuringiensis serovar sotto str. T04001
[23] = target: HLA-B*08:01; assay: as above; settings: source organism: Bacillus thuringiensis serovar sotto str. T04001
[24] = target: HLA-A*31:01; assay: as above; settings: source organism: Bacillus thuringiensis serovar sotto str. T04001
[25] = target: HLA-B*53:01; assay: IEDB peptide-MHC binding, purified MHC/competitive/fluorescence; ≥ and ≤ were set here for values at or beyond the usual limits of such assays; settings: source organism: Human immunodeficiency virus 1
[26] = target: HLA-B*44:02; assay: IEDB peptide-MHC binding, purified MHC/direct/fluorescence; filed as Kd, often an IC50 or EC50 that approximates it; ≥ and ≤ were set here for values at or beyond the usual limits of such assays; settings: source organism: Influenza A virus (A/chicken/Thailand/LV1NF/2004(H5N1))
[27] = target: HLA-B*15:17; assay: as above; settings: source organism: Influenza A virus (A/chicken/Thailand/LV1NF/2004(H5N1))
[28] = target: HLA-A*11:01; assay: as above; settings: source organism: Influenza A virus (A/chicken/Thailand/LV1NF/2004(H5N1))
[29] = target: HLA-B*18:01; assay: as above; settings: source organism: Influenza A virus (A/chicken/Thailand/LV1NF/2004(H5N1))
[30] = target: HLA-A*31:01; assay: as above; settings: source organism: Influenza A virus (A/chicken/Thailand/LV1NF/2004(H5N1))
[31] = target: HLA-A*26:03; assay: IEDB peptide-MHC binding, purified MHC/competitive/fluorescence; filed as Kd, often an IC50 or EC50 that approximates it; ≥ and ≤ were set here for values at or beyond the usual limits of such assays; settings: source organism: Influenza A virus
[32] = source organism: Bacillus anthracis
[33] = source organism: Influenza A virus (A/chicken/Thailand/LV1NF/2004(H5N1))

ATLNICNFW
IC50 [1]: 5 µM

TVIRFWHAM
Kd [2, 32]: ≥ 20 µM
Kd [3, 32]: 0.593 µM
Kd [4, 32]: ≥ 20 µM
Kd [5, 32]: ≥ 20 µM
Kd [6]: ≥ 20 µM
Kd [7, 32]: 0.0207 µM
Kd [8]: ≥ 20 µM
Kd [9, 32]: 1.81 µM
Kd [10]: 0.012 µM
Kd [11]: ≤ 0.001 µM
Kd [12, 32]: ≥ 20 µM
Kd [13, 32]: ≤ 0.001 µM
Kd [14]: ≥ 20 µM
Kd [15, 32]: ≥ 20 µM
Kd [16, 32]: ≥ 20 µM
Kd [17, 32]: 0.074 µM
Kd ([18]; source organism: Bacillus cereus H3081.97): 0.05 µM
Kd [19]: 6.04 µM
Kd [20]: 0.293 µM
Kd [21]: 0.168 µM
Kd [22]: 0.0979 µM
Kd [23]: ≥ 20 µM
Kd [24]: 0.0344 µM

WPVKVIHT
IC50 [25]: ≥ 20 µM

EMIWDPNGW
Kd [2, 33]: ≥ 20 µM
Kd [3, 33]: ≥ 20 µM
Kd [26]: ≥ 20 µM
Kd [4, 33]: ≥ 20 µM
Kd [5, 33]: ≥ 20 µM
Kd [27]: ≥ 20 µM
Kd [7, 33]: ≥ 20 µM
Kd [28]: ≥ 20 µM
Kd [9, 33]: ≥ 20 µM
Kd [29]: 2 µM
Kd [12, 33]: ≥ 20 µM
Kd [13, 33]: ≥ 20 µM
Kd [15, 33]: ≥ 20 µM
Kd [16, 33]: ≥ 20 µM
Kd ([17]; source organism: Influenza A virus (A/Puerto Rico/8/34/Mount Sinai(H1N1))): 0.185 µM
Kd [30]: ≥ 20 µM
Kd ([18]; source organism: Influenza A virus (A/chicken/Hebei/706/2005(H5N1))): ≥ 20 µM
Kd [31]: ≥ 20 µM
